Here are results for 3 molecules from article PMC7532178, “Interaction of protocadherin-15 with the scaffold protein whirlin supports its anchoring of hair-bundle lateral links in cochlear hair cells” (Scientific Reports, 2020).

T1: whirlin-HHD1 (aa residues 30-121) (mouse, UniProt Q80VW5-1 30-121)
T1 construct: extra 7 aa at the N-terminus of all recombinant proteins of the study; whirlin, residues 30-121: harmonin-homology domain 1 (HHD1); also called HHD1 domain alone; source: E. coli BL21 (DE3) codonPlus-RIPL, purified (Glutathione Sepharose 4B, GST removed by TEV proteinase, SEC)
T1 sequence: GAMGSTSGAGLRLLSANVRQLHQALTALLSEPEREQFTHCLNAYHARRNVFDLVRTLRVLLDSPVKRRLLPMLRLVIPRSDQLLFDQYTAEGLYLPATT

T2: whirlin-PDZ2 (aa residues 272-368) (mouse, UniProt Q80VW5-1 272-368)
T2 construct: extra 7 aa at the N-terminus of all recombinant proteins of the study; whirlin, residues 272-368: PDZ2 domain; source: E. coli BL21 (DE3) codonPlus-RIPL, purified (Glutathione Sepharose 4B, GST removed by TEV proteinase, SEC)
T2 sequence: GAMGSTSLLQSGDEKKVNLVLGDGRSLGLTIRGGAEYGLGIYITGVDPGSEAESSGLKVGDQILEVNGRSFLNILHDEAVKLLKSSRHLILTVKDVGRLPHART

T3: whirlin-NTR (aa residues 2-147) (mouse, UniProt Q80VW5-1 2-147)
T3 construct: extra 7 aa at the N-terminus of all recombinant proteins of the study; also called entire NTR of whirlin (containing the HHD1 domain); source: E. coli BL21 (DE3) codonPlus-RIPL, purified (Glutathione Sepharose 4B, GST removed by TEV proteinase, SEC)
T3 sequence: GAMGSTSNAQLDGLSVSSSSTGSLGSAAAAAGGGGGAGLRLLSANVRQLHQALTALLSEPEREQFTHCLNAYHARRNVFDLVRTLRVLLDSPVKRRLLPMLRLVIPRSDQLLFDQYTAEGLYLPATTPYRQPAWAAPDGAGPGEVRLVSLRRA

T4: whirlin-PDZ1 (aa residues 137-228) (mouse, UniProt Q80VW5-1 137-228)
T4 construct: extra 7 aa at the N-terminus of all recombinant proteins of the study; whirlin, residues 137-228: PDZ1 domain; also called whirlin PDZ1 domain alone; source: E. coli BL21 (DE3) codonPlus-RIPL, purified (Glutathione Sepharose 4B, GST removed by TEV proteinase, SEC)
T4 sequence: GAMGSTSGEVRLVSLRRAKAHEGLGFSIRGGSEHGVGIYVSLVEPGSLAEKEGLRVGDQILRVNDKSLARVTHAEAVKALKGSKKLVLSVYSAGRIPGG

T5: whirlin-PDZ3 (aa residues 821-915) (mouse, UniProt Q80VW5-1 821-915)
T5 construct: extra 7 aa at the N-terminus of all recombinant proteins of the study; whirlin, residues 821-915: PDZ3 domain, common to L- and S-whirlin; also called whirlin PDZ3 domain
T5 sequence: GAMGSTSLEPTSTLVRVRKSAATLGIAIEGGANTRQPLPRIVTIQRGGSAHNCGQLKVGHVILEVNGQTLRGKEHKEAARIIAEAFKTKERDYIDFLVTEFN

T6: whirlin PDZ1-Hp (aa residues 137-246) (mouse, UniProt Q80VW5-1 137-246)
T6 construct: extra 7 aa at the N-terminus of all recombinant proteins of the study; whirlin, residues 137-246: PDZ1 with its hairpin extension Hp1; also called PDZ1 + Hp1; whirlin PDZ1-Hp1 fragment
T6 sequence: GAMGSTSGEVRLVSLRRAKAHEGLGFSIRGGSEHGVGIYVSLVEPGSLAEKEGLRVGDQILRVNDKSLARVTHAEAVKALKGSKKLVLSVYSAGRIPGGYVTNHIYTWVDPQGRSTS

B1: PCDH15-CD1 C-terminal peptide (biotin-TTDS-GIDVQPHSQSTSL) (peptide)
peptide: {Biotin-TTDS}-GIDVQPHSQSTSL
notes: C-terminal 13 aa of protocadherin-15 isoform CD1, including the PBM; source: synthetic peptide (Eurogentec); not shown: biotin, N-terminal, kept
B2: PCDH15-CD3 C-terminal peptide (biotin-TTDS-MGPWNSLHIPMTKL) (peptide)
peptide: {Biotin-TTDS}-MGPWNSLHIPMTKL
notes: C-terminal 14 aa of protocadherin-15 isoform CD3, including the PBM; source: synthetic peptide (Eurogentec); not shown: biotin, N-terminal, kept
B3: PCDH15-CD2 C-terminal peptide (biotin-TTDS-GANSEQYNTAL) (peptide)
peptide: {Biotin-TTDS}-GANSEQYNTAL
notes: C-terminal 11 aa of protocadherin-15 isoform CD2, including the PBM; source: synthetic peptide (Eurogentec); not shown: biotin, N-terminal, kept

No end group written: not given here. *: point of attachment. Biotin = O=C1N[C@H]2[C@H](CS[C@H]2CCCCC(=O)*)N1; TTDS = trioxatridecan-succinamic acid spacer

For one assay, the target named is T1, whirlin-HHD1 (aa residues 30-121). Put plainly: SPR; ProteOn XPR 36; N-terminally biotinylated peptides captured on a Neutravidin NLC sensor chip, whirlin fragments flowed as analytes at 20 μL/min for 2 min; 250 mM NaCl, 50 mM Tris pH 7.5, 0.5 mM TCEP; steady-state fit Req = (Rmax*C)/(Kd+C); mean of three experiments; Figure 4B shows the responses at 10 μM. As to conditions: both partners purified.
B1: the Kd is greater than 1000 µM.
Still for that read-out and setting: under B2 stands greater than 1000 µM; under B3, greater than 1000 µM.

The target in the next assay is T2, whirlin-PDZ2 (aa residues 272-368). The assay is described as above. The settings on record: both partners purified.
In turn, B1 registered a Kd greater than 1000 µM.
Same read-out and setting: the figure for B2 is 460 µM; for B3 it is greater than 1000 µM.

The target of a further assay is T3, whirlin-NTR (aa residues 2-147). The assay is described as above. The settings on record: both partners purified.
Consider B1, for which the Kd was greater than 1000 µM.
In turn, B2 registered a Kd greater than 1000 µM.
Same read-out and setting: the figure for B3 is greater than 1000 µM.

In a further assay the target is T4, whirlin-PDZ1 (aa residues 137-228). Described as above. The settings on record: both partners purified.
Turning to B1, binding was characterised by a dissociation constant (Kd) of 106 µM.
Still for that read-out and setting: the figure for B2 is 34 µM; for B3 it is 147 µM.

For a further assay, the target named is T5, whirlin-PDZ3 (aa residues 821-915). The assay is described as above. As to conditions: both partners purified.
Molecule B1 gave a Kd greater than 1000 µM.
Same read-out and setting: the figure for B2 is 230 µM; for B3 it is greater than 1000 µM.

Another assay concerns the target T6, whirlin PDZ1-Hp (aa residues 137-246). Described as above. The settings on record: both partners purified.
Turning to B1, the Kd came out at 29 µM.
Regarding B2, the Kd stood at 11 µM.
Same read-out and setting: the figure for B3 is 33 µM.
